Results published in patent US20230257479A1 (Genmab, published 2023).
Changes are numbered by the printed parent chain. Names and notes keep the numbering of the source.

Tests used:
[1] = biological target: T1, full length cynomolgus monkey 5T4 on transfected HEK-293 cells (cynomolgus monkey, UniProt Q4R8Y9 35-420); test: flow cytometry, HEK-293 cells transfected with cynomolgus monkey 5T4, FITC secondary [I)A]
T1 construct: Uniprot Q4R8Y9; residues 1-34 are the signal peptide; also called cynomolgus 5T4
T1 sequence: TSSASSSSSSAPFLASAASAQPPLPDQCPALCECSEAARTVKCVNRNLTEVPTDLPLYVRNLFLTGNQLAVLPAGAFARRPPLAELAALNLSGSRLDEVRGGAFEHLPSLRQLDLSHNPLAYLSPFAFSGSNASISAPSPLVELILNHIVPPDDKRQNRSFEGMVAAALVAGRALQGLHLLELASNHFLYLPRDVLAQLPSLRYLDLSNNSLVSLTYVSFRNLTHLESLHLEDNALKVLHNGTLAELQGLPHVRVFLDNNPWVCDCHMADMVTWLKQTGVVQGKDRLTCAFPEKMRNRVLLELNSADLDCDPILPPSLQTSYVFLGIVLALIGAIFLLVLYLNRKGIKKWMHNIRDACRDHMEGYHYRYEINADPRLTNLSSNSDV
Method: (§1) Experiments were performed in technical duplicate. After washing twice in staining buffer, cells were incubated in 50 µL secondary antibody at 4° C. for 30 min. […] Cells were washed twice in staining buffer, re-suspended in 30 µL staining buffer and analyzed on an iQue Screener (Intellicyt Corporation, USA). Binding curves were analyzed using non-linear regression (sigmoidal dose-response with variable slope) using GraphPad Prism V7.02 software (GraphPad Software, San Diego, CA, USA).

[2] = biological target: T2, full length human 5T4 (SEQ ID NO: 1) on cells (human, UniProt Q13641 32-420); test: flow cytometry, HEK-293 cells transfected with human 5T4, PE secondary [II)A]
T2 construct: Uniprot Q13641; residues 1-31 are the signal peptide; Used both for transfected HEK-293 cells and for 5T4-expressing human tumor cell lines
T2 sequence: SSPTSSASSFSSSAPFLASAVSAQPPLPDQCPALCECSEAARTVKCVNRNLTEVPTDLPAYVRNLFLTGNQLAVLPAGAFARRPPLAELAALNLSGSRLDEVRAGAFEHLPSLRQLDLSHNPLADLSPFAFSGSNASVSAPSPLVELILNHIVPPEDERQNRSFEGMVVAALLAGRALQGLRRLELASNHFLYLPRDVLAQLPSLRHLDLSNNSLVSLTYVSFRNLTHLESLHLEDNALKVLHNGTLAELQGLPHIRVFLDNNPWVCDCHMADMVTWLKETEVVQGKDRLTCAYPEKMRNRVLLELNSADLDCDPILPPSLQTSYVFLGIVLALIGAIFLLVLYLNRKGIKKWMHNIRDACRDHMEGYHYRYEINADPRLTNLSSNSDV

[3] = biological target: T2, full length human 5T4 (SEQ ID NO: 1) on …; test: flow cytometry, HeLa cells, FITC secondary [I)A]
Method: (§2) After washing twice in staining buffer, cells were incubated in 50 µL secondary antibody at 4° C. for 30 min. […] Next, cells were washed twice in staining buffer, re-suspended in 120 µL staining buffer and analyzed on a BD LSRFortessa FACS (BD Biosciences, USA). Binding curves were analyzed using non-linear regression (sigmoidal dose-response with variable slope) using GraphPad Prism V7.02 software (GraphPad Software, San Diego, CA, USA).

[4] = biological target: T2, full length human 5T4 (SEQ ID NO: 1) on …; test: flow cytometry, HEK-293 cells transfected with human 5T4, FITC secondary [I)A]
Method: as §1

[5] = biological target: T1, full length cynomolgus monkey 5T4 on …; test: flow cytometry, HEK-293 cells transfected with cynomolgus monkey 5T4, PE secondary [II)A]
[6] = biological target: T2, full length human 5T4 (SEQ ID NO: 1) on …; test: flow cytometry, MDA-MB-231 cells, FITC secondary [I)A]
Method: as §2

[7] = biological target: T1, full length cynomolgus monkey 5T4 on …; test: flow cytometry, HEK-293 cells transfected with cynomolgus monkey 5T4, FITC secondary [I)B]
Method: as §1

[8] = biological target: T2, full length human 5T4 (SEQ ID NO: 1) on …; test: flow cytometry, HEK-293 cells transfected with human 5T4, PE secondary [II)B]
[9] = biological target: T1, full length cynomolgus monkey 5T4 on …; test: flow cytometry, HEK-293 cells transfected with cynomolgus monkey 5T4, PE secondary [II)B]
[10] = biological target: T2, full length human 5T4 (SEQ ID NO: 1) on …; test: flow cytometry, HeLa cells, FITC secondary [I)C]
Method: as §2

[11] = biological target: T2, full length human 5T4 (SEQ ID NO: 1) on …; test: flow cytometry, MDA-MB-231 cells, FITC secondary [I)C]
Method: Binding of CD3x5T4 bispecific and 5T4 monospecific antibodies to 5T4-positive human tumor cells. Mono- and bivalent binding of 5T4 antibodies to HeLa cells (left panels) or MDA-MB-231 cells (right panels) was determined by flow cytometry. Cells were incubated with increasing concentrations of antibodies. After secondary labelling with FITC-conjugated goat-anti-human IgG F(ab′)2, the MFI was determined by flow cytometry.
as §2

B1: IgG1-5T4-207-FEAR (antibody, V domains shown)
VH: QVQLQQWGAGLLKPSETLSLTCAVYGGSFSGYYWTWIRQPPGKGLEWIGEIDHSESTNYNPSLKSRVTISVDTSKNQFSLKLSSVTAADTAVYYCAGWFGELYHYYYGMDVWGQGTTVTVSS
VL: EIVLTQSPATLSLSPGERATLSCRASQSVSSYLAWYQQKPGQAPRLLIYDASNRATGIPARFSGSGSGTDFTLTISSLEPEDFAVYYCQQRSNWPLTFGGGTKVEIKR
notes: Monospecific, bivalent IgG1 FEAR
[1]
  EC50 (read off the curve): ~0.06 µg/mL
[2]
  EC50 (read off the curve): ~0.08 µg/mL
[3]
  EC50 (read off the curve): ~0.008 µg/mL
[4]
  EC50 (read off the curve): ~0.05 µg/mL
[5]
  EC50 (read off the curve): ~0.08 µg/mL
[6]
  EC50 (read off the curve): ~0.03 µg/mL

B2: IgG1-5T4-226-FEAR (antibody, V domains shown)
VH: B1 VH with T35S, E55G, G97A, Y103W, H104D
VL: EIVLTQSPATLSLSPGERATLSCRASQSVSSFLAWYQQKPGQAPRLLIYDASNRATGIPARFSGSGSGTDFTLTISSLEPEDFAVYYCQQRSNWPLTFGQGTRLEIK
notes: Monospecific, bivalent human IgG1 kappa with L234F, L235E, D265A, K409R (FEAR); also called IgG1-5T4-226-FEAR-FITC
[7]
  EC50 (read off the curve): ~0.08 µg/mL
[8]
  EC50 (read off the curve): ~0.02 µg/mL
[9]
  EC50 (read off the curve): ~0.02 µg/mL
[10]
  EC50 (read off the curve): ~0.01 µg/mL
[11]
  EC50 (read off the curve): ~0.04 µg/mL
